The text below walks through data of article PMC10397247.

Where two headings read alike, the source gives them in different places.

One assay deals with T1, O9-bN.
T1 chain: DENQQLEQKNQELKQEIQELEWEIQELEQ
Nature of the assay: two-hybrid library CCNG1.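 Note: natural log of median RNA to DNA barcode read ratio; higher means stronger binding.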

The target in a further assay is T2, O7-bN.
T2 chain: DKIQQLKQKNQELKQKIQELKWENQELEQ
Nature of the assay: two-hybrid library CCNG1.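 Note: natural log of median RNA to DNA barcode read ratio; higher means stronger binding.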

Another assay deals with T3, O8-bN.
T3 chain: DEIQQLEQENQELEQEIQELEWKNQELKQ
Nature of the assay: two-hybrid library CCNG1.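 Note: natural log of median RNA to DNA barcode read ratio; higher means stronger binding.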

Another assay addresses T4, APC8191-AA.
T4 chain: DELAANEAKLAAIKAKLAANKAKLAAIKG
Nature of the assay: two-hybrid library CCmax.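 Note: natural log of median RNA to DNA barcode read ratio; higher means stronger binding.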 The settings on record: mean of both orientations.

For the next assay, the target named is T5, APC4264-AA.
T5 chain: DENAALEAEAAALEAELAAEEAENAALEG
Nature of the assay: two-hybrid library CCmax.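 Note: natural log of median RNA to DNA barcode read ratio; higher means stronger binding.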 The settings on record: mean of both orientations.

The target in a further assay is T6, APC3645-AA.
T6 chain: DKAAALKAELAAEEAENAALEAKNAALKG
Nature of the assay: two-hybrid library CCmax.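 Note: natural log of median RNA to DNA barcode read ratio; higher means stronger binding.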 The settings on record: mean of both orientations.

The target of the next assay is T7, APC9096-AA.
T7 chain: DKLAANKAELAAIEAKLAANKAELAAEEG
Nature of the assay: two-hybrid library CCmax. The settings on record: mean of both orientations.

In the next assay the target is T8, APC4011-AA.
T8 chain: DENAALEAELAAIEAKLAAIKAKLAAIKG
Nature of the assay: two-hybrid library CCmax. The settings on record: mean of both orientations.

In a further assay the target is T9, APC4436-AA.
T9 chain: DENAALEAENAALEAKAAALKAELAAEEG
Nature of the assay: two-hybrid library CCmax. The settings on record: mean of both orientations.

The target in a further assay is T10, APC2405-AA.
T10 chain: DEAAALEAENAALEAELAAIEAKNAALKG
Nature of the assay: two-hybrid library CCmax.

The next assay deals with T11, APC5383-AA.
T11 chain: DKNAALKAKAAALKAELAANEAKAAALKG
Nature of the assay: two-hybrid library CCmax. The settings on record: mean of both orientations.

For another assay, the target named is T12, APC7099-AA.
T12 chain: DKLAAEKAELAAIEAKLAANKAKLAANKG
Nature of the assay: two-hybrid library CCmax. The settings on record: mean of both orientations.

A further assay deals with T13, APC9319-AA.
T13 chain: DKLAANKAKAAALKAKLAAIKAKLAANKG
Nature of the assay: two-hybrid library CCmax. The settings on record: mean of both orientations.

For another assay, the target named is T14, APC8910-AA.
T14 chain: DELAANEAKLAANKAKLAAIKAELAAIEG
Nature of the assay: two-hybrid library CCmax. The settings on record: mean of both orientations.

For the next assay, the target named is T15, APC6108-AA.
T15 chain: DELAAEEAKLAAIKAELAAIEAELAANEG
Nature of the assay: two-hybrid library CCmax. The settings on record: mean of both orientations.

The target in a further assay is T16, O9-bH.
T16 chain: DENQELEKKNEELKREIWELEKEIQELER
Nature of the assay: two-hybrid library CCNG1.

A further assay has as its target T17, O7-bH.
T17 chain: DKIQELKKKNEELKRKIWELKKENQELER
Nature of the assay: two-hybrid library CCNG1.

Another assay deals with T18, O8-bH.
T18 chain: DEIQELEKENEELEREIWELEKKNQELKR
Nature of the assay: two-hybrid library CCNG1.

The target of a further assay is T19, 4H40-bN.
T19 chain: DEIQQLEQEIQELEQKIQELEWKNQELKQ
Nature of the assay: two-hybrid library CCNG1.

The target in a further assay is T20, 4H319-bN.
T20 chain: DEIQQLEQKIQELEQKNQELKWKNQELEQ
Nature of the assay: two-hybrid library CCNG1.

The target of another assay is T21, 4H492-bN.
T21 chain: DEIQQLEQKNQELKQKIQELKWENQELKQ
Nature of the assay: two-hybrid library CCNG1.

A further assay has as its target T22, 4H348-bN.
T22 chain: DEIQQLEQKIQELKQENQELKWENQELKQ
Nature of the assay: two-hybrid library CCNG1.

The target of another assay is T23, 4H477-bN.
T23 chain: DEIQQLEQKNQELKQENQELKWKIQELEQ
Nature of the assay: two-hybrid library CCNG1.

The target in the next assay is T24, 4H3277-bN.
T24 chain: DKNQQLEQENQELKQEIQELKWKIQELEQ
Nature of the assay: two-hybrid library CCNG1.

A further assay has as its target T25, 4H3057-bN.
T25 chain: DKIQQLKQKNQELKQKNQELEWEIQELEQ
Nature of the assay: two-hybrid library CCNG1.

A further assay deals with T26, 4H741-bN.
T26 chain: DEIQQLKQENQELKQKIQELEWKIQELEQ
Nature of the assay: two-hybrid library CCNG1.

The target of a further assay is T27, 4H3277-bA.
T27 chain: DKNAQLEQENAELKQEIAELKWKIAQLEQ
Nature of the assay: two-hybrid library CCNG1.

Another assay has as its target T28, 4H741-bA.
T28 chain: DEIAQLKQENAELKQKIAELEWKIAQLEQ
Nature of the assay: two-hybrid library CCNG1.

The target of another assay is T29, 4H477-bA.
T29 chain: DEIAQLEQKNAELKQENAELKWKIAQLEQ
Nature of the assay: two-hybrid library CCNG1.

In another assay the target is T30, 4H3057-bA.
T30 chain: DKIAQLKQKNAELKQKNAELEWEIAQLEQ
Nature of the assay: two-hybrid library CCNG1.

For the next assay, the target named is T31, 4H348-bA.
T31 chain: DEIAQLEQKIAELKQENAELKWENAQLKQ
Nature of the assay: two-hybrid library CCNG1.

The target in a further assay is T32, 4H492-bA.
T32 chain: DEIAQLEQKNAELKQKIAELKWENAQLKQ
Nature of the assay: two-hybrid library CCNG1.

Another assay has as its target T33, 4H319-bA.
T33 chain: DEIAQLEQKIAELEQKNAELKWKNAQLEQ
Nature of the assay: two-hybrid library CCNG1.

The target of a further assay is T34, 4H40-bA.
T34 chain: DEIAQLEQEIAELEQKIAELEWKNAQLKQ
Nature of the assay: two-hybrid library CCNG1.

In the case of DKNQQLKQKIQELKQENQELEWKIQELKQ [O6-bN], the interaction score in the assay with O9-bN is -1.38; with O7-bN it was -0.589; with O8-bN it was -0.754.
As for DELAAIEAEAAALEAKAAALKAEAAALEG [APC232-AA], the interaction score in the assay with APC8191-AA was -2.34; with APC4264-AA, -1.93; in the assay with APC3645-AA it was -1.5; with APC9096-AA it was -1.8; with APC4011-AA, -1.21; with APC4436-AA it was -1.65. For the same molecule, the interaction score in the assay with APC2405-AA (mean of both orientations) was -1.6; in the assay with APC5383-AA, -2.15; in the assay with APC7099-AA, -1.68; with APC9319-AA it was -1.47; in the assay with APC8910-AA, -2.1; in the assay with APC6108-AA, -1.6.
Consider DEAAALEAENAALEAELAAIEAKNAALKG [APC2405-AA], for which the interaction score is 0.786 with APC8191-AA; -1.55 with APC4264-AA; -1.29 with APC3645-AA; -1.39 in the assay with APC9096-AA; -1.01 with APC4011-AA; -1.04 with APC4436-AA. For the same molecule, the interaction score with APC2405-AA is -1.47; with APC5383-AA it was -1.52; with APC7099-AA, -1.31; with APC9319-AA, -1.81; in the assay with APC8910-AA, -1.63; with APC6108-AA it was -1.24.
DENQELEKEIEELERKNWELKKEIQELER [O5-bH]: the interaction score with O9-bH is -0.548; in the assay with O7-bH, 0.921; in the assay with O8-bH, -0.103.
Turning to DKIQQLKQKNQELKQKNQELEWEIQELEQ [4H3057-bN], the interaction score with 4H40-bN was -1.17; with 4H319-bN, -1.2; in the assay with 4H492-bN, -1.18; with 4H348-bN, -1.34; with 4H477-bN, -2.69; in the assay with 4H3277-bN, -0.965. Besides, the interaction score with 4H3057-bN is -1.22; with 4H741-bN, -0.673.
Regarding DKIQQLKQKNQELKQKIQELKWENQELEQ [O7-bN], the interaction score was -1.53 with O9-bN, -1.44 with O7-bN and 0.737 with O8-bN.
Turning to DKNQELKKKIEELKRENWELEKKIQELKR [O6-bH], the interaction score is -0.446 in the assay with O9-bH, 0.89 with O7-bH and 0.914 with O8-bH.
Taken in the same sequence, the figures for DKIQELKKKNEELKRKIWELKKENQELER [O7-bH] were 0.59, -0.477 and 1.5.
As to DENQQLEQEIQELEQKNQELKWEIQELEQ [O5-bN], the interaction score with O9-bN was -1.42; with O7-bN, -0.471; with O8-bN, -0.445.
For DKIAQLKQKNAELKQKNAELEWEIAQLEQ [4H3057-bA], the interaction score with 4H3277-bA is -1.24; in the assay with 4H741-bA, -1.38; with 4H477-bA, -1.12; with 4H3057-bA, -0.859; with 4H348-bA it was -1.57; in the assay with 4H492-bA it was -1.16. The interaction score is -1.24 with 4H319-bA and -1.17 with 4H40-bA.
